Reference: patent EP4285935A1 (Emergence Therapeutics AG, dated 2023)

Tests used:
[1] = molecular target: T1, N-terminal Flag-tagged human Nectin-4 on transfected MDA-MB231 cells (human, UniProt Q96NY8 32-510); assay: flow cytometry on MDA-MB231 cells transfected with N-terminal Flag-tagged Nectin-4, dose range 0.3 ng/mL - 5 µg/mL (FIG. 1)
T1 construct: whole, on cells; also called PVRL4; Flag-tagged Nectin-4; not shown: N-terminal Flag tag from vector p3XFLR4.C1
T1 sequence (looked up): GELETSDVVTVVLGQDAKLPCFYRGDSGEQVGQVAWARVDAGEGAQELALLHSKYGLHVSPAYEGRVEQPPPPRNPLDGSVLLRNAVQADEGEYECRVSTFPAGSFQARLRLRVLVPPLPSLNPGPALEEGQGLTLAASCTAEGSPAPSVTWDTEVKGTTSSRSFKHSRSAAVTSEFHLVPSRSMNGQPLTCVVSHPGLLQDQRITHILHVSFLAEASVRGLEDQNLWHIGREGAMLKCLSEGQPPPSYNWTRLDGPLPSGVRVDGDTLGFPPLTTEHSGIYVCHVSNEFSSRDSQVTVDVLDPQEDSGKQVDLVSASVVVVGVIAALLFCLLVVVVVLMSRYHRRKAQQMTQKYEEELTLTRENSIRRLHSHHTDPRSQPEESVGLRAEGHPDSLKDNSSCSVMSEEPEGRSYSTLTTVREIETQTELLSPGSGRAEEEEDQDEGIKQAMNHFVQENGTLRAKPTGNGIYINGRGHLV

[2] = molecular target: T2, human Nectin-4 on cells (human, UniProt Q96NY8 32-510); assay: flow cytometry on normal differentiated human keratinocytes (NHEK), dose range 8 pM - 33 nM (FIG. 15); Ch-5A12.2 is the reference of the comparison
T2 construct: whole, on cells; also called CHO cells transfected with human Nectin-4 cDNA; Nectin-4 expressed by normal differentiated human keratinocytes (NHEK)
T2 sequence (looked up): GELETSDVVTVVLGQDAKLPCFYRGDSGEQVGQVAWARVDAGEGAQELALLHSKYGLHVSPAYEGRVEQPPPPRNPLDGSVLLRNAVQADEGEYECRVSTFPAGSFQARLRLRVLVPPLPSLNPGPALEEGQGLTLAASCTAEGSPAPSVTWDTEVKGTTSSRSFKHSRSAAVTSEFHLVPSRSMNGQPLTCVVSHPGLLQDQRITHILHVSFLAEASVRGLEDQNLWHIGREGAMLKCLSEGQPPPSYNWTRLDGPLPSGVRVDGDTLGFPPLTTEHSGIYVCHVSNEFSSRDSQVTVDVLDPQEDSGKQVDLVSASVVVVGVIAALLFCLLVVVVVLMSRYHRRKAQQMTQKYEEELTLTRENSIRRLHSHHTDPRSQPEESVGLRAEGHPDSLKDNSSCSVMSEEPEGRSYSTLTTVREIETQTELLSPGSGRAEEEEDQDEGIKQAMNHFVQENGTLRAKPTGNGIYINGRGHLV

B1: Ch-5A12.2 (antibody, V domains shown)
VH: QIQLQQSGAELVKPGASVTLSCKTSGFTFNSMYISWLKQKPGQSLEWIAWIYAGTGGTRFNQKFTGKVQLTVDTSSSTAYMQFSSLTTDDSAIYYCAIRSGFVPMDYWGQGTSVTVSS
VL: SIVMTQTPKFLLVSAGDRVTITCKASQSVSNDVAWYQQKPGQSPKLLIYYASNRYTGVPDRFTGSGYGTDFTFTISTVQAEDLAVYFCQQDYSSPWTFGGGTKLEIK
notes: also called 5A12.2 mAb; Ch-5A12.2 mAb
binding result [1]: binds | binding result [2]: binds
